In the DeepSol protein solubility set:

test: soluble on expression in E. coli; label from the status in PepcDB or PDB records

**Q.** Which “soluble on expression in E. coli” value does the source give for “MGNWLLPEGLADVLPAEARRIEELRRELLDLYRTYGFELVAPPLVEYIDSLLSSTGSDLNLRTCKLVDQLSGRTLGVRADMTSQVTRIDAHLLNRAGVTRLCYCGSVLHARPADLLSSRELLQIGAEIYGHAGFEADLEIIQLVMDTLATAGVRNARLDLCHSGVMRAIFDADPQASRHAGDLCTLLREKDVPGLAELASRVDGLGEDTVRALQALATLYGGPEIIARARRELPAVPGMAQALDALQALVDAMPGVTLSVDLADVGGYGYHSGVTFAVYGEDWHDALVRGGRYDDVSRAFGRARPATGFSLDLRKLAAGLTPAEPARAVRAPWGQDPALTDAVRRLRRSGEIVVQVLPGHEQGLDEFVCDRELALQDGAWTVRTL” here?
**A.** not soluble

**Q.** With “MGSDKIHHHHHHMSEYLEIPELNKAFPFRSFVNEGEVLVYPHWHKEIEIIYALKGSLNLGVNDMPIQLNEGEIQIINGGDVHYFLASPNSERIVIQFDLSLFQEEMQMDGQNGTLREMLTEMAHLSREWPEETTAKVQSLIRNIHLESSNDSPGKHYILKADLLAIIGLIYREIPQKKTQPDSVISEKAVLKSKETLQKLDQIFSYVEKHYQEPVSLQEVADYTGFSTYYFTKFFKRNTGMTFVTFLNDYRLNKAKWMLLNEAFPVTEVAELAGFSSVKTFHHAFKRAMGVAPLKYRKTIYGNN” as the sequence, how does the “soluble on expression in E. coli” value read?
**A.** not soluble

**Q.** Which “soluble on expression in E. coli” value does the source give for “GHMKCPVCHQGEMVSGIKDIPYTFRGRKTVLKGIHGLYCVHCEESIMNKEESDAFMAQVKAFRASVNAETVAPEFIVKVRKKLSLTQKEASEIFGGGVNAFSRYEKGNAQPHPSTIKLLRVLDKHPELLNEIR” here?
**A.** soluble

**Q.** For “MGSDKIHHHHHHADGNDPVENSVSTYLLEKTYGARSVTYEENNSDKLKLSELPAISLSEADHILSVLRKHTDAQEELDIQTATKGEQTWLRIVMKQTIDHKYAFTIQLNMNCYNDGSLYYGGYQAECSSSLIKWYLKGFSLATDNATKNYKFESQSYIYMKVIDNGIKYMQIPVTINGNYNPQNHDAAFSYNL”, which “soluble on expression in E. coli” value is on record?
**A.** not soluble

**Q.** For “MDPVFDFEDALDQTEMAQLAVDELKKIPEVNTLFAERWLPAPFNLDDLAKLPEGTLGHVYAIEMKARGFDPYFYKKVPVVDDISYLKMLWRSTHDIYHVVAGFDTDGIGEIGLQAFVLAQTPIPISVMLVSFGMVMTSLYQPAKFQDLMAEIARGYSLGSHTPRKLIAQKWDQFWDVPVIEIRECLGMNTVKQRERALEHHHHHH”, which “soluble on expression in E. coli” value is on record?
**A.** soluble

**Q.** Which “soluble on expression in E. coli” value does the source give for “MGSDKIHHHHHHMSHNKFDIIPAASFSNIGLEMIPPFPGLSSWVQCLWVNNDLKNSSRHVEEKLYPDAGSSLTFEIRNTRINARYFHHTRVVTHRWDTSTRHISVRFRPGGAKALLGLDIDDSQNIEIDLFDTPVSQQLSLQPLMDMLPALSADQQVQAVQNWLLTLSYRAQEPSRKWSTLLAHASADLIPPQQLALQNGFSRRTLERQLRKYLGFTPNQLHGFAQIRAARQYLILTPDSLSDIALACGYFDQAHFTNAFREQTLETPLQYRQRKMSQISNR” here?
**A.** not soluble

**Q.** With “MNSENSKWQAIQESTFALARKCEEFDSDGITVYLFSKTFQRYDYVNSAKVKQLFAENSPSETTNLVGVLQDAINSYFQRKSLGKTKPAGEVILVITDGAPVDSQAVCEVIIKATHLVESANELRISIIQVGSDSHATKFLKALDDHLQSVGAKFDICDTITLDELEITNLSDVLMKAITDLEHHHHHH” as the sequence, how does the “soluble on expression in E. coli” value read?
**A.** not soluble

**Q.** For “MRVYYYMNIEELKRVIKDQREYLESLEKQKIIERELPFNVEQYLSKPNILAILGVRRSGKSTLGYLLVREKNFAYIDFSDDRLVNFTDFDTLTKAFYELYGDFTHVLIDEPQYVNGWELFVNRLRKEKSVIITGSNSSLLSGELASALTGRHVDLILFPFSFKEYLTFRGVKVDLYSTKSISLIKNELENYLKEGGFPETLSLGKRIIPSIYNDIITKDVIGRYKIRDVVKFKEFVNSMVKYYSTEISVRKLANLLKISTRTIEEWLNAIQESYLLFFVRRYSRSPKQFNGQRKVYVIDAGIVNYLTSFSYGGLMENVVAIQLLRKNQLEGIYYLRGEDYEVDFVDEKNGELIQVSYVSSQDEINRNEIRSLVKGSQITEFNKLTIVSWDLEDEIIVEGKKIRIVPLWKYLI”, which “soluble on expression in E. coli” value is on record?
**A.** soluble

**Q.** Which “soluble on expression in E. coli” value does the source give for “MFRTQSRYLVRSILANHCVLPSTRMAVSPILNQSIKFYSSKDNATDKSQEKEQPKSILNDDMLARAGFEDVDPKEETSNSEEQATKQTGRKRKRAQTSKDLQRERYANMFYLSALIFGVAGVGYMSRDWDSEKEQEEMDGKNVENGYTPKLMYERLSKRLGSLFTFFSEPAFENLLPPPPPEQYRRPLTLVVTLDDFLIHSNWDTQHGWRTGKRPGLDYFLGYLSQYYEIVVFSSNSQIYSDKTVNKLDPYHAYISYALFREACRYKDGKLIKDLSLLNRDLGKTVMIDVDEDSAALQPENSIIVKKWEGQPDEYLISLIPFLEYLATQPVKDVRPILNSYKDKSNIVAEFAERENKLREQWRKDHGGNNGKPNAGNFIAKLLGIPVPEPKMPLDIIREHGQLQYEHFQKYLQENAHKFLEEEQKLKDEFGKVTLNKLITEGAPNAEEIAKVQQQRALEEAQKQQEGHK” here?
**A.** not soluble

**Q.** For “MGHHHHHHHHHHSSGHIEGRHMEANGLGPQGFPELKNDTFLRAAWGEETDYTPVWCMRQAGRYLPEFRETRAAQDFFSTCRSPEACCELTLQPLRRFPLDAAIIFSDILVVPQALGMEVTMVPGKGPSFPEPLREEQDLERLRDPEVVASELGYVFQAITLTRQRLAGRVPLIGFAGAPWTLMTYMVEGGGSSTMAQAKRWLYQRPQASHQLLRILTDALVPYLVGQVVAGAQALQLFESHAGHLGPQLFNKLALPYIRDVAKQVKARLREAGLAPVPMIIFAKDGHFALEELAQAGYEVVGLDWTVAPKKARECVGKTVTLQGNLDPCALYASEEEIGQLVKQMLDDFGPHRYIANLGHGLYPDMDPEHVGAFVDAVHKHSRLLRQN”, which “soluble on expression in E. coli” value is on record?
**A.** soluble

**Q.** Which “soluble on expression in E. coli” value does the source give for “MGSDKIHHHHHHMKATLKSLRETKANPAVSIFVKTHREHPANDKDPIALKNQLKVVEERLTNEYDKRTATTILDNIHAKTKEHNHNLNLDTLAIFASTDDVQVIRMPIDTTERVVISHRFATRDLVRDMASAVHYYTLVLTRDKARLIEVSNDRVIREFDLDDTAQNNMENIPFPIDNNGLHTTSDGGSDRSANNDSSALKEFFNQVDKSVQELWGEHKMPLVVVGDTKNIGYYKDVCDRPDNIIATVSNATNLEEGSAQHIINSVQEAVEGYRTSLHQAALGEIDKARGANRLQTDLQEVYRSAFQGVGDTLYVRRGYIQPAKIDEKAQTLSLADDSGAEGITDDAIGEIIEHVIHNGGKAVFMPQDIMSEDQPIALVTRY” here?
**A.** not soluble

**Q.** Which “soluble on expression in E. coli” value does the source give for “MALLDFFLSRKKNTANIAKERLQIIVAERRRSDAEPHYLPQLRKDILEVICKYVQIDPEMVTVQLEQKDGDISILELNVTLPEAEELK” here?
**A.** not soluble

**Q.** Which “soluble on expression in E. coli” value does the source give for “MYKNILLGVDTQLKNEKALKEVSKLAGEGTVVTVLNAISEQDAQASIKAGVHLNKLTEERSKRLEKTRKALEDYGIDYDQIIVRGNAKEELLKHANSGKYEIVVLSNRKAEDKKKFVLGSVSHKVAKRATIPVLIVK” here?
**A.** not soluble

**Q.** With “LGFLPKEKKDKIKRFIKYEDALMSLTAEILIRAVVCSKLGIKNESVKFNRTTYGKPYLEGYDDFHFNLSHSGSWVVCAVSSKPVGIDIEKIREVDLDIAKRFFSKEEASDLFAKEDNEKTEYFFELWTLKESYIKADGRGLSLPLNSFFFRIENDNVIFVSESEKKKFFFKRYDIDKGYKLAVCSMESHFPEDVEIKSFEEVCKFLCER” as the sequence, how does the “soluble on expression in E. coli” value read?
**A.** not soluble

**Q.** Which “soluble on expression in E. coli” value does the source give for “MLRRRTFLSWSSGKDSAWALHVLRQDPHVDVIGLFCTVNKVFDRVVMHGVRVALLQQQAESAGLPLHIIEIPYPCSNDEYASAMSAFVDSARKENIECFAFGDLLLEDVRQYREDRLNGTGITPIFPLWGIPTKTLSREMVAGGLKAVITCIDPKRIPESFAGREYNESFLDDIPGSVDPCGEYGEFHTFSFDGPMFQNPIDVVLGETVHRDGFVFTDLLSLTSSTEPTH” here?
**A.** not soluble

**Q.** Which “soluble on expression in E. coli” value does the source give for “MEDKIGTTLTTRTVTGSLTPFIPIQDGDQLLVNGRSQDLYGWIYITELLDVINVYPLSLNNNSIVNFQPGTNIFFQLESSSYSSMRVPVARNVAIGKTTTLKGYVGLPDNAGIKFFDDSSIKK” here?
**A.** not soluble

**Q.** For “MGSDKIHHHHHHMTKHLDVGQCLTIIEGTNTALKSYMDHFDFMEAAISRVLELEGSLKGKGGEALLRNYQELQLPAIRAARAFISSMKEMGEKLRSLILSFEPSENGMVSEDFYRNQVTRGYDRFEQFMEQNKAEVDAIAASVSHIIDLGKLDIRHVQDRVDDARKHANDTVEGLYELDHEGMRLMRELQRDMAELKAILKKVTEWTVSGGALLNGVDLNDVRSHFADKTLHTKAPEVSVKLSSPNPLIQYANDFPLRFKYDTMRSIMKVFDLSHHHKWFSNRIKSLPLTSLFIMARWNVNTKSDNYLKVH”, which “soluble on expression in E. coli” value is on record?
**A.** not soluble

**Q.** Which “soluble on expression in E. coli” value does the source give for “MGSIILKAFDESTEINGDSLDLGEIQLTPYKGRLTLELLKKPAHTSQEEPGLEQENLYNYTISIYNKTKQAKIKNFNIKPPYIFLNDTNIETGDVIEVTFTHKKDYTLPATIELTLDRLMNASGQAVAKENGKGMASIQSGNQRCELMVYNSDKKFIESCSMNREGKIISNPLKEGVYTFVFISSNNYLWRLNTLEQFEEIGLKEGIHFVKKEVEIKNGEIKDLGLIVVPELNEKELFFTDPDVASYAVVSENNRIGKDIVLRAKYSFRKPIESQTVKLLFRVPDQTFYVKDTLTIDGELVDSVNVSGSFIEVTTTKTEGVVRFNIRPTEAVVCYSNAYVEFKAEGRTVREPLGVVNEVVPYLTIGAPNVTSLEKVYVTGQTLPNLEVKIYDEGSLVGVTKANSTGAWNFQVSLGKDKSYSVHNLSARIEYNDQVIESETLEVIYKKSVPEIEKVTMIHSNQSLILYKNGEIVPKGVYTYVPSQSYTFIVDFVGDSAEEIENLCIVSNRNGEERKLDAKYDPQSKSWIATGSFGYNHVPGSFTVEYNLKKKRLIKEDGELNLEVLEQISTFADQFLYELKKENVMVGLLDENEIGFMLKEDTGGIAIVTIVIGDQPIEREKYEKMGYLFKEIDGKLGAVLLIKDETENKIFTSKVRLASNKTEDSVKSEDDDESSQKETPLVTKDERISMAATIIGELGNIAGSGKVVEAIDFISGIGTAVNTIAFTPANAVTDMGYVQKKLQESENISSEDKERLRDDLFLASGVYNFTVNANFIASLMDGHTRNGTMHKIIDIVIDKYDQYSLGDKLWEDIFGKNEDDRESGKSTKSGKGSSIKLPLQEQKTLVDPSGYVYETVPDNRITDATVTVYYKDENGEMILWNAEEFGQKNPLLTDENGFYAWDVPEGMWQVKVEKEGYETAYSEILPVPPVQTNVNIPLVSYEPPKVGHIYAYPEYIEIAFSKYVKHATLDSESIQLKQGENKVNIKIVYEDEEGNYSKKIKLIPAEKTSFEGKYTLNISKSITSYAGVAMQKAEIRDIEIVAEPKSIEILDKVEIELRKTVAIEIRVLPEEAAKGKKIIVTSGMEEIVSAEDVLLDERGRGKLKLKGNLPGTVDIDLRLEGSAVEKKIQATVKFPEDNGEIIEPPVVLNGDLNRNGIVNDEDYILLKNYLLRGNKLVIDLNVADVNKDGKVNSTDCLFLKKYILGLITI” here?
**A.** not soluble

**Q.** Which “soluble on expression in E. coli” value does the source give for “GPGSVPPKKPTEVPKLVRINTNEKGITNVQLARAPVNSMSLELFQELNQWMLWLGCNEETKAVIISSAIPTVFSAGLEFSEVHNPKPDRIAVFWQSFQEMWRILDTFPKPIIAAITGNSPAAGCIIAMGCDYRVMARGPKGNTNNNRLYRIGLNETKLGLVPPPWTVSAYAYLLGSRQAEEMLQLGETPVADDARNLGLIDEVAADEERAIEVAYQQAERFLSVPQEARRVSRDMARCEYLRLLATEDDRNYDTEFFTQYMLRPEVQKNLESYLERLKSRSRK” here?
**A.** not soluble

**Q.** With “MGSDKIHHHHHHMVLMPSPETIFIESGPLSARFRSDWGGRMTHLVHAEMGDILAPTQADVFEPYNWPRAGAYPLVPYHNRVYGASFVESGKTHRLLPHPALTPDAMHGPAHRRPWHVASAAEDRVTLQLNYEADDEWPFSFVAEQHFRLEPDRLIVELSIINSSDASAPVSLGWHPYLAVPLSSHAETDARLEYPLDALNVPTGNEAHPRSSRSIPAATGYTLHFRYWSTATVELDKGTLLLEADPIFEYLAVHRMEKYLCLEPVSMAAGALCLPETERESRGLRTILPEGRLSGRISLSIRG” as the sequence, how does the “soluble on expression in E. coli” value read?
**A.** not soluble
